Percent disulfide-bonded data for 1 substance are collected here from PMC8106670.

In assay [1] the target is ^HisBamA_(N427C) (E. coli) (UniProt P0A940). Nature of the assay: cross-linking.
For assay [2], the target named is ^HisBamA_(T809C) (E. coli) (UniProt P0A940). Nature of the assay: cross-linking.

In the case of “^MBP−76EspP_(T984C) (from UniProt Q7BSW5 948-1300)”, the percent disulfide-bonded in assay [1] turned out to be 40%; in assay [2], 50%.
